# Measurements from the nanobody polyreactivity screen of Harvey et al. (2022).
# Assay: yeast display, Sf9 membrane polyspecificity reagent, FACS + sequencing; frameworks hold sequencing errors
# How it was run: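 Nanobodies came from a synthetic yeast display library in Saccharomyces cerevisiae BJ5465, induced with galactose for 36–48 hours and stained for 1 hour at 4 °C with 10% biotinylated, detergent-solubilized Sf9 membrane reagent. Cells were enriched on streptavidin microbeads and then FACS-sorted, with low and high (top ~1%) gates set on anti-HA fluorescence for expression and streptavidin fluorescence for reagent binding. Each polyreactivity label reflects the gate a clone came from. Genes were amplified by colony PCR, sequenced by MiSeq 2 × 250 and filtered by CDR length.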
row,Sequence,polyreactivity (PSR sort gate)
1,QVQLVESGGGLVQAGGSLSLSCAASGYTFPYYTMGWYRQAPGKERELVATITRRGDSTYYADSVKGRFTISRDNAKNTVYLQMNSLKPEDTAVYYCNTASYGRHQFRKSSKMDYWGQGTQVTVSS,high polyreactivity
2,QVQLVESGGGLVQAGGSLSLSCAATGFTFRPYAMAWYRQATGKERELVAAITSGDSTNYADSVKGRFTISRDNAKKSVYLQMISVKAEDTAVFYCAADSTGRPSVSYDYWGQGTQVTVSS,low polyreactivity
3,QVQLVESGGGLVQAGGSLSLSCAATGINYGDYAMGWYRQAPGKERELVAAISSDTSTNYADSVKGRFTISRDNAKNTVYLQMNSLKPEDTAVYECAAEGSYYGWYQGFDYWGQGTQVTVSS,low polyreactivity
4,QVQLVESGGGLVQAGGSLSLSCAATGRIFDGNVMGWYRQAPGKERELVAAISSGDSTNYADSVKGRFTISRDNAKNTVYLQRNSLKTEDTAVYDCNRTPNSGGYDRFYGGDFYYWGQGTQVTVSS,low polyreactivity
5,QVQLVESGGGLVQAGGSLSLSCAATGRTFVKNAMGWYRQAPGKERELVASISRSGGSTYYADSVKGRFTISRDTAKNTVYLQMNSLKTEDTAVYYCNAAVYGGYSRSRYGYWGQGTQVTVSS,high polyreactivity
6,QVQLVESGGGLVQAGGSLSLSCAATGSTFSLYAMGWYIQAPGKERELVAAISSSGGSTYYADSVKGRFTISRDNAKNTVYLQMNSLKPEDTAVYYCAAYRVGSYDYWGQGTQVTVSS,high polyreactivity
7,QVQLVESGGGLVQAGGSLSLSCAAYGFTFERNGMGWYRQAPGKERELVAAISIRGGSTYYADSVKGRFTMSRDNAKNTVSLQMNSLKPEDTAVYYCAVVARRAFDYWGQGTQVTVSS,high polyreactivity
8,QVQLVESGGGLVQAGGSLSLSCAAYGRTFTYYAMGWYRPAPGKERELVAVISSGGRTYYADSVKGRFTISRDNAKITVSFQMNSLKPDDKGVYYCNAASPRYLVEYDFWGQGTQVTVSS,high polyreactivity
9,QVQLVESGGGLVQAGGSLSLSCAAYGRTSPIYAMGWYRQAPGKERELVASITRCTRTNYADSVKGRFTISRDNAKNTVYLQMNSLKPEDTAVYYCAAVSYSYSLNAYDYWGQGTQVTVSS,low polyreactivity
10,QVQLVESGGGLVQAGGSLSLSCAAYGSTFDPNDMGWYRQAPGKERELVAVIDSGDGTTYYADSVKGRFTISRDNAKNTVYLQMNRLKPEDTAVYYCAVDESTSYYDDHEDYWGQGTQVTVSS,low polyreactivity
11,QVQLVESGGGLVQAGGSLSLSCAAYGSTFLRNAMGWYRQAPGKKGSWVATISYDGDSTYYADSVKGRFTISRDNAKNTVYLQMYSLKPEDTAVYYCAASYSLTFWDKDDYWGQGTQVTVSS,low polyreactivity
12,QVQLVESGGGLVQAGGSLSLSCADSAGTFKTNAKGWYRQAPGKERELVAAITGSGTSTYYADSVKGRFTSSRDNAKNTVYFQMNSLKPEDTAVYYCAADKLYQPGIGDDYWGQGTQVTLSS,low polyreactivity
13,QVQLVESGGGLVQAGGSLSLSCASSGSIFVRNVMGWYRQAPWKERELVATIRTRGGSTSYADSVKGRFTISRDNAKNTVYLQMNSLTPEDTAVYYCNARLSYRSAWYYGGDRYDYWGQGTQVTVSS,high polyreactivity
14,QVQLVESGGGLVQAGGSLSLSFAASGRTFGYYDMGRYRQAPGKEREFVAAITWSGGNTYADSVKGRFTISRDNAKNTVYLQMNSLKPEDTAVYYCNAVVRAYYTSIWVPRYDYWGQATQVTVSS,high polyreactivity
15,QVQLVESGGGLVQAGGSLSLSSAATGNIFRNNAMGWYRQAPGKERELGAAISYSGGRTFYADSVKGRFTISRDNAKNTVYLQMNSLKPEDTAVYYCAVTYGRNADDYEYWGQGTQVTVSS,high polyreactivity
16,QVQLVESGGGLVQAGGSLSLTCAASGRIFSYYAMGWYRQAPGKERELVAGISRGTSTYYADSVKGRFTISRDNAKNTVYLQMNSLKPEDTAVYYCAADYFSYYSPYRYGYWGQGTQVTVSS,high polyreactivity
17,QVQLVESGGGLVQAGGSNRLSCAASGFTFYRNVMGWYRQAPGKERELVAARTWNGGTTYYADSEKGRFTISRDTAKSSVYLQMDSLQREDTAVYFCAAASRHTGSYRFYYWGQGTQVTVSS,high polyreactivity
18,QVQLVESGGGLVQAGGSQRLSCAASGRTFRGNAMGWYRQAPGKERELVATINSGGSTNYADSVKGRFTISRDKAKNTVYLQMNSLIPEDTAVYYCAAVKYFRWKYNYWGQGTQVTVSS,high polyreactivity
19,QVQLVESGGGLVQAGGSRRLSCAASGFTFSQYTRGWYRQAPGKERELVAAISSGSSTYYADSVKGRFTISRDNAKNTVYLQMNSLKPEDTAVYYCAARVGWYTWGYYWGQGTQVTVSS,high polyreactivity
20,QVQLVESGGGLVQAGGSRRLSCAASGFTFSSYAMGWYRQAPGKERELVASISWRGGITYYADSVKGRFTISRDNAKNTVYLQMNSLKPEDTAVYYCAAVAFFRPKFYYWGQGTQVTVSS,high polyreactivity
21,QVQLVESGGGLVQAGGSRRLSCAASGLIFYYYAMGWYRQAPGKERELVAAISGSGGSTYYADSVKGRFTISRDNAKNTVYLQMNSLKPEDTAVYYCNKLSWRKYLGYEYWGQGTQVTVSS,high polyreactivity

row,Sequence,polyreactivity (PSR sort gate)
1,QVQLVESGGGLVQAGGSRRLSCAASGRIFRIYAMGWYRQAPGKERELVAAITWSGGSTYYADSVKGRFPISRDNAKNTVYLQMNSLKPEDTAVYYGAAKARSNKYNYWGQGTQVTVSS,high polyreactivity
2,QVQLVESGGGLVQAGGSRRLSCAASGRIFSQNTRGCYRQAPAKERELVAVISWRCGRTSYSDSVKGRFTISRDNSKNTVFLKMKSLKQEDTAVYYCAASAKLHYYRTYRYNYWGQGTQVTVSS,high polyreactivity
3,QVQLVESGGGLVQAGGSRRLSCAASGRTFVGTAMGWSRQAPGKERELVAAMSGDGSTNYADSVKGRFTISRDNAKNTVYLQMNSLKPEDTAVYYCAADGVTRYYQRTYTRYGYWGQGTQVTVSS,low polyreactivity
4,QVQLVESGGGLVQAGGSRRLSCAASGSIFTGYAMGWYRQSPGKERELVAAINSNGGRTYYADSVKGRFTISRDNAKNTVYLQMNSLKPEDTAVYYCAADSGRGYRYKTFNWGRFYWGQGTQVTVSS,high polyreactivity
5,QVQLVESGGGLVQAGGSRRLSCAASGSTFEYNAMGWYRQAPGKERELVASSTNYADSVKGRFTISRDNAKNTVYLPMNSLKPEDTAVYYCAREQGVNRNHDYWGQGTQVTVSS,low polyreactivity
6,QVQLVESGGGLVQAGGSRRLSCAASGSTFSSYAKGWYRQAPGQERELVAAISSSGSRTYYADSVKGRFTISRDNAKNTVYLQMNSLKPEDTAVYYCAADYYYNTKLDYWGQGSQVTVSS,high polyreactivity
7,QVQLVESGGGLVQAGGSRRLSCAGSGRIFHYYAMGWYRPAPGTERELVAAISRTGSTYYADSVKGRFTISRDNAINTVYLQMNSLKPEDTAVYYCAADYWPQSNRWVYFRYGYWGQGTQVTVSS,high polyreactivity
8,QVQLVESGGGLVQAGGSRRLSCDASGRTFGYYAMGWYRQAPGKERELVAAISSSGGSTYYADSVKRRFTISRDNAKNTVYLQMNRLKPEDTAVYYCAADTSDTPDYYYWGPGTQVTVSS,low polyreactivity
9,QVQLVESGGGLVQAGGSRRLSWAASGFIFARNTMGWYRQAPGTERELVAAITKSGGSTYYADSVKGRFTISRDNAKNTVYLQMNILKPEDTAVYYCGARSYTLRGVYFSGYDYWGQGTQVTVSS,low polyreactivity
10,QVQLVESGGGLVQAGGSRSLSCAASGSTFYSYAMGWYRQAPGKERELVAAINWDGVSTYYADSVKGRFTISRDNAKNTVYLQMNSLKPEDTAVYYCAAELFSGYRISGTYYYWGQGTQVTVSS,low polyreactivity
11,QVQLVESGGGLVQAGGSVRLSCAASGLTFQRYAMGGYRQAPGKERELVASITGNGGSTYYADSVKGRFSISRDNAKNTVYLQMNSLKPEDTAVYYCNARRYVRTCQQPLYDYWGQGTQVTVSS,high polyreactivity
12,QVQLVESGGGLVQAGGSVRLSCAASGSIFQYNTMGWYRQAPGKDRELFADINGRGGSTYYADSVKGRFTISRDNAKNTVYLQMNSLKPEDTGVYYCNARVFGGYSKYLFIGRYYWGQGTQVTVSS,low polyreactivity
13,QVQLVESGGGLVQAGGTLRFSCAASGSILEYYTMGWDRQAPGKERELVAAISASGGNTYYADSVKGRFTISRANAKNTVYFQMNSLKPEDTAVYYCNAYYGPRGYGYWGQGTQVTVSS,high polyreactivity
14,QVQLVESGGGLVQAGGTLRISCAPSGRIFNTNAMRWYRQAPGKERELVAGITDSGDSTYYADSVKGRFTISRDNAKNTVYLQMISLKPEDTAVYYCATDPASPYIYDYWGQGTQVTVSS,low polyreactivity
15,QVQLVESGGGLVQAGGTLRLICAASGLTFGRYAMGWYRQAPGKERELVASISQRGGSTYYADSVKGRFTISRDNAKNTVYLQMNSLKPEDTAVYYCAARRYYRGEYDYWGQGTQVTVSS,low polyreactivity
16,QVQLVESGGGLVQAGGTLRLNSAASGRNFYDYAMRWYRQAPGKERELVASISGGGSTDYADSVKGRFTISRDNAKNTVDFQMNSLNPEDTAVYYCAAQYYLYRSRFDYWGQGTQVTVSS,high polyreactivity
17,QVQLVESGGGLVQAGGTLRLRCAASGRTFKDYAMGWYRQAPGKERELVAAISWSGGDTYYADSVKGRFTISRDNAKNTVYFQLNSLKPEDTAVYYCNADPSGVFFYSLEFDYWGQGTQVTVSS,low polyreactivity
18,QVQLVESGGGLVQAGGTLRLSCAASGGTFRRYAMGWYRQAPGKERELVAAISWTGGSTYYADSVKGRFTISRDNAKNTVYLQMNSLKPEDSAVYYCAAVGSSSSKGGYWGQGTQVTVSS,high polyreactivity
19,QVQLVESGGGLVQAGGTLRLSCAASGIIFDRNVMGWYRQAPGKERELVAAITRNGGNTYYADSVKGRFTISRDNAKNTVYLQLNSLKPEDTAVYYCNAKYWPFSRWYYFWGQRTQVTVSS,high polyreactivity
20,QVQLVESGGGLVQAGGTLRLSCAASGIIFLVNAMGWYRQAPGKERELVATITSGGSTYADSVKGRFTISRDNAKNTVYLQMNSLKPEDTAVYYCAAVRRRRNSYGYWGQGTQVTVSS,high polyreactivity
